Laboratory results reported in patent US20080206232A1.

Experiments:
SREBP1c = test: cell-based or functional assay
LXRα = test: cell-based or functional assay

## Flag-PGC-1β (from UniProt Q8VHJ7 1-1014)
SREBP1c
  luciferase activity of the FAS promoter reporter (FAS-700 luc) in transfected H2.35 hepatoma cells: 17 fold
LXRα
  luciferase activity of 4×LXRE-luc in transfected H2.35 hepatoma cells, with LXRα/RXR and LXR ligand: > 240 fold
  promoter activity of ABCA1-luc in transfected H2.35 hepatoma cells: 2 to 3 fold

## Flag-PGC-1α
LXRα
  promoter activity of ABCA1-luc in transfected H2.35 hepatoma cells: 2 to 3 fold
